For orientation: Kd means the concentration at which binding is half-saturated. What is called koff is the first-order rate constant of dissociation. Higher therefore signals fast dissociation. By kon is commonly meant a measure of how fast the partners come together. Low values mean slower complex formation, high ones faster complex formation.

Where a chain is given by its changes, count along the chain named. Read-outs that look alike come from different tables or passages of the source.

The results in this text go back to US20200024337A1 (H LUNDBECK A S, published 2020).

Assay [1] deals with T1, alpha-synuclein (human, UniProt P37840 1-140). The assay is described as follows: SPR (Biacore 3000), synuclein ligand format. On the technique in general: Surface plasmon resonance follows binding to a sensor surface in real time, without labels.
Assay [2] concerns the target T1, alpha-synuclein. The assay is described as follows: SPR (Biacore 3000), IgG captured by anti-human IgG on CM5 chip, synuclein as analyte.
Assay [3] addresses T1, alpha-synuclein. The assay is described as above. The source holds these as a separate data set.
Assay [4] deals with T2, ….
T2 construct: x-axis label of the 3rd bar, upper panel
The assay is described as follows: Pepscan ELISA on a synthesized peptide array (peroxidase conjugate, ABTS, CCD read-out, scale 0 to 3000) [upper panel]. (In general: In an ELISA, binding on a coated surface is turned into a signal by an enzyme label.)
Description: (§1) The binding of antibody to each of the synthesized 20 mer peptides was tested in a Pepscan based ELISA. The linear peptide array covering the entire coding sequence of alpha-synuclein, as well as all peptides with oxidized methionines or nitrosylated tyrosines, were incubated with primary antibody solution (overnight at 4° C.). After washing, the peptide arrays were incubated with a 1/1000 dilution of an antibody peroxidase conjugate (SBA,cat.nr.2010-05) for one hour at 25° C. After washing, the peroxidase substrate 2,2′-azino-di-3-ethylbenzthiazoline sulfonate (ABTS) and 2 μl/ml of 3 percent H₂O₂ were added. After one hour, the color development was measured. The color development was quantified with a charge coupled device (CCD)—camera and an image processing system. […] The results were quantified and stored into the Peplab database. Occasionally a well contains an air-bubble resulting in a false-positive value, the cards are manually inspected and any values caused by an air-bubble are scored as 0.

Assay [5] addresses T3, ….
T3 construct: x-axis label of the 2nd bar, upper panel
The description is as above.
Description: as §1

Assay [6] addresses T4, ….
T4 construct: x-axis label of the 4th bar, upper panel; also called alpha-synuclein 20-mer 121-140
The assay is described as above.
Description: as §1

B1: 2E6-HLD-1 (antibody, V domains shown)
VH: QVQLVQSGAEVKKPGASVKVSCKASGYTFTSYWMHWMRQAPGQGLEWIGRIDPNSGTTKYNVNFKTRATLTVDKSTSTAYMELSSLRSEDTAVYYCARLGHYGNLYAMDYWGQGTLVT
VL: EIVLTQSPATLSLSPGERATLSCSASSSVSYMHWYQQKPGQAPRRWIYDTSKLASGVPARFSGSGSGTDYTLTISSLEPEDFAVYYCQQWSSNPPTFGQGTKLEIKR
notes: Humanized 2E6; also called h2E6-HLD-1; H2E6-HLD-1
For the molecule B1, the figures for the KD improvement with alpha-synuclein [1], with alpha-synuclein [2] and in the assay with alpha-synuclein [3] were 2 fold (Ch2E6 = 1), 2.5 fold (Ch2E6 = 1) and 2.5 fold (Ch2E6 = 1), respectively.

B2: 7A10 (antibody, V domains shown)
VH: B1 VH with M108K
VL: EIVLTQSPATLSLSPGERATLSCSASSSVSYIHWYQQKPGQAPRRWIYDTSKLASGVPARFSGSGSGTDYTLTISSLEPEDFAVYYCQQWSSNPPTFGQGTKLEIK
notes: also called 2E6_7A10; 2E6-HLD1-7A10
In the case of B2, in the assay with alpha-synuclein [3], the KD improvement was 10.3 fold (Ch2E6 = 1), the Ka was determined as 1.81e+08 M⁻¹, the Kd amounted to 5.52 nM and the koff turned out to be 0.000285 s⁻¹. In the assay with alpha-synuclein [3], this molecule came in with a kon of 51700 M⁻¹ s⁻¹.

B3: 8D9 (antibody, V domains shown)
VH: B1 VH with M108K
VL: B2 VL
Turning to B3, the KD improvement in the assay with alpha-synuclein [3] was 8.7 fold (Ch2E6 = 1).

B4: 9C12 (antibody, V domains shown)
VH: B1 VH with F64I
VL: B2 VL with I32M, W46L
As for B4, the KD improvement with alpha-synuclein [3] is 10 fold (Ch2E6 = 1).

B5: HDL1-3 (antibody, V domains shown)
VH: B1 VH with F64I
VL: B2 VL
notes: also called combination 3: 7A10 light chain+9C12 heavy chain
On to B5, for which, in the assay with alpha-synuclein [2], the KD improvement is 45 fold (Ch2E6 = 1), the Ka came to 7.94e+08 M⁻¹, the Kd stood at 1.26 nM and the koff worked out at 0.000126 s⁻¹. Moreover, in the assay with alpha-synuclein [2], the kon is 99900 M⁻¹ s⁻¹.

B6: 2E6-HLD-3 (antibody, V domains shown)
VH: B1 VH with A68V
VL: B1 VL
notes: Humanized 2E6; also called h2E6-HLD-3; H2E6-HLD-3
B6: in the assay with alpha-synuclein [1], the KD improvement is 1 fold (Ch2E6 = 1) and binding was characterised by a dissociation constant (Kd) of 5.32 nM.

B7: 7C4 (antibody, V domains shown)
VH: B1 VH with S31R, L45P
VL: B2 VL with Y31F, I32M
Consider B7, for which the KD improvement in the assay with alpha-synuclein [3] is 7 fold (Ch2E6 = 1).

B8: 2E6-HLD-2 (antibody, V domains shown)
VH: B1 VH with M37V
VL: B1 VL
notes: Humanized 2E6; also called h2E6-HLD-2; H2E6-HLD-2
As to B8, the KD improvement with alpha-synuclein [1] was 1 fold (Ch2E6 = 1).

B9: mouse 2E6 (antibody, V domains shown)
VH: QVQLQQPGAELVKPGASVKLSCTASGYTFTSYWMHWMKQRPGRGLEWIGRIDPNSGTTKYNVNFKTKATLTVDKPSSTAYMHLSSLTSEDSAVYYCARLGHYGNLYAMDYWGQGTSVT
VL: QIVLTQSPAIMSASPGEKVTMTCSASSSVSYMHWYQQKSGTSPKRWIYDTSKLASGVPTRFSGSGSGTSYSLTISSMDTEDAATYYCQQWSSNPPTFGAGTKLELK
notes: also called m2E6
Take B9: the binding result in assay [4], in assay [5] and in assay [6] was “binds” throughout.

B10: chimeric 2E6 (antibody, V domains shown)
VH: B9 VH
VL: B9 VL
notes: also called ch2E6; Ch2E6
B10: the KD improvement in the assay with alpha-synuclein [1], in the assay with alpha-synuclein [2] and with alpha-synuclein [3] was 1 fold (Ch2E6 = 1) throughout.
